This test concerns the target extracellular matrix (ECM) proteins. Nature of the test: ECM (Matrigel) ELISA, 1 µM antibody. In general terms: In an ELISA, binding on a coated surface is turned into a signal by an enzyme label.

Substance high control mAb (antibody) came in with an ECM score of 24.2. As to low control mAb (antibody), the ECM score came out at 1.1.

(Values after patent US20250230251A1.)
